Laboratory results as given in patent US20180371076A1, “MATERNAL TH17 CELLS AND PSYCHIATRIC DISORDERS” (New York University, priority 2017, published 2018).

Key:
[1] = test system: offspring of pregnant mice (MIA mouse model); assay: Ultrasonic vocalization (USV) assay in pups, MIA mouse model; type: in vivo
Protocol: Maternal Immune Activation. Mice were mated overnight and females were checked daily for the presence of seminal plugs, noted as embryonic day 0.5 (E0.5). On E12.5, pregnant female mice were weighed and injected with a single dose (20 mg/kg; i.p.) of poly(I:C) (Sigma Aldrich) or PBS vehicle. Each dam was returned to its cage and left undisturbed until the birth of its litter. All pups remained with the mother until weaning on postnatal day 21 (P21), at which time mice were group housed at maximum 5 per cage with same-sex littermates. For the IL-17 cytokine blockade experiment, monoclonal IL-17a blocking antibody (clone 50104; R&D) or isotype control antibody (IgG2a, clone 54447; R&D) was administered 6 h before maternal immune activation (FIG. 2) via i.p. route (500 μg/animal) or 2 days after maternal immune activation (FIG. 5) via i.p. route (500 μg/animal).
Ultrasonic vocalizations. On postnatal day 9, mice were removed from the nest and placed in a 15-cm diameter dish in a sound-attenuated chamber. Mouse ultrasonic vocalizations (USVs) were detected for 3 min using an UltraSoundGateCM16/CMPA microphone (AviSoft) in the chamber under stable temperature and light control, and recorded with SAS Prolab software (AviSoft). For certain USV tests, Ultravox software (Noldus information Technology, USA) was used. An amplitude filter was used to eliminate extraneous peripheral noise (i.e. HVAC). Due to the unreliability of automated USV scoring, all pup USVs were measured and confirmed manually by observers blind to the experimental conditions.
Maternal Immune Activation Mice were mated overnight and females were checked daily for the presence of seminal plugs, noted as embryonic day 0.5 (E0.5). On E12.5, pregnant female mice were weighed and injected with a single dose (20 mg/kg; i.p.) of poly(I:C) (Sigma Aldrich) or PBS vehicle. Each dam was returned to its cage and left undisturbed until the birth of its litter. All pups remained with the mother until weaning on postnatal day 21 (P21), at which time mice were group housed at maximum 5 per cage with same-sex littermates. For the IL-17 cytokine blockade experiment, monoclonal IL-17a blocking antibody (clone 50104; R&D) or isotype control antibody (IgG2a, clone 54447; R&D) were administered 6 h before maternal immune activation via i.p. route (500 μg/animal). For IL-6 cytokine injection into pregnant dams, carrier-free recombinant mouse IL-6 (R&D) was administered as a single dose (10 μg/animal; i.p.). For testing anti-IL17a therapeutic effects, IL-17a blocking antibody or isotype control antibody (as described above) was administered 2 days after maternal immune activation (500 μg/animal; i.p.).
Ultrasonic vocalizations On postnatal day 7-9, both male and female mice were removed from the nest and habituated to the testing room for 15 minutes (separate of dam). After the habituation period, mouse pups were placed in a clean 15 cm glass pyrex high wall dish. Mouse pup ultrasonic vocalizations (USVs) were then detected for 3 min using an UltraSoundGateCM16/CMPA microphone (AviSoft) in the sound attenuation chamber under stable temperature and light control (15 lux), and recorded with SAS Prolab software (AviSoft). USVs were measured between 33-125 kHz. USVs were scored as contiguous if gaps between vocalizations were <0.02 msec. For certain USV tests, Ultravox software (Noldus information Technology, USA) was used. An amplitude filter was used to eliminate extraneous peripheral noise (i.e. HVAC). Due to the unreliability of automated USV scoring, all pup USVs were measured and confirmed manually by observers blind to the experimental conditions.
Intraventricular cytokine injection At E14.5, uterine horns of pregnant mice were exposed by a caudal ventral midline incision (<2 cm). Each uterine horn was exteriorized carefully and each fetus was identified. […]

[2] = test system: cortex of the fetal brain; assay: Cortical development: SATB2/TBR1/CTIP2 immunohistochemistry of fetal and adult offspring brain; type: in vivo, mouse
Protocol: Immunohistochemistry. Animals were transcardially perfused with 4% paraformaldehyde in PBS under Ketamine/xylazine anesthesia. The brains were removed and sectioned at 100-μm thickness with a Leica VT1000S vibratome (Leica, USA). Slices were permeabilized with blocking solution containing 0.4% Triton X-100, 2% goat serum, and 1% BSA in PBS for 1 hr at room temperature, and then incubated with anti-TBR1 (ab31940, Abcam), anti-SATB2 (ab51502, Abcam) and anti-CTIP2 (ab18465, Abcam) antibodies overnight at 4° C. The following day, slices were incubated with fluorescently conjugated secondary antibodies (Invitrogen, USA) for 1 h at room temperature, and mounted in vectashield mounting medium with DAPI (Vector laboratories). Images of stained brain slices were acquired using a confocal microscope (LSM710; Carl Zeiss) with a 20× objective lens; all image settings were kept constant.
Intraventricular cytokine injection At E14.5, uterine horns of pregnant mice were exposed by a caudal ventral midline incision (<2 cm). Each uterine horn was exteriorized carefully and each fetus was identified. Recombinant mouse IL-17a cytokine (R&D, 0.6 μL of 2 ng/μL), IL-6 (R&D, 0.6 μL of 10 ng/μL) or saline together with the dye Fast Green (Sigma, 0.3 mg/mL) was injected (3-4 μL) into the third ventricle of each embryo by a pulled micropipette. After injection of all embryos, the uterus was replaced within the abdomen and the cavity was lavaged with warm sterile saline.
Immunohistochemistry Fetal brains of male embryos were dissected and fixed with 4% paraformaldehyde in PBS for 6 h at 4° C. Adult brains of male offspring were perfused and fixed with 4% paraformaldehyde in PBS for overnight at 4° C. The brains were removed and sectioned at 50-μm thickness with a Leica VT1000S vibratome (Leica, USA). Slices were permeabilized with blocking solution containing 0.4% Triton X-100, 2% goat serum, and 1% BSA in PBS for 1 h at room temperature, and then incubated with anti-TBR1 (ab31940, Abcam), anti-SATB2 (ab51502, Abcam), and anti-CTIP2 (ab18465, Abcam) antibodies overnight at 4° C. The following day, slices were incubated with fluorescently conjugated secondary antibodies (Invitrogen, USA) for 1 h at room temperature, and mounted in vectashield mounting medium with DAPI (Vector laboratories). Images of stained brain slices were acquired using a confocal microscope (LSM710; Carl Zeiss) with a 20× objective lens; all image settings were kept constant. Spatial locations of the patches were registered based on their distance from the midline of the brain. These cortical malformations were quantified using cropped images containing the malformations, or the corresponding region in WT brains. The region of interest (300×300 μm^2) was divided into 10 equal laminar blocks representing different depths of the cortical plate. SATB2-, TBR1-, or […] cells were counted using Image J software. Signal intensity in each image was normalized relative to the total signal intensity.

[3] = injection into pregnant WT mothers (10 μg/animal; i.p.)

Molecule: poly(I:C)
- number of pup USV calls ([1]; poly(I:C)-injected mothers pretreated with control antibody, vs PBS-injected mothers): emitted more USV calls
- cortical thickness of the fetal brains at E18.5 ([2]; MIA (poly(I:C))): did not affect cortical thickness
- cortical cytoarchitecture at E18.5 ([2]; MIA (poly(I:C)) vs PBS): patch of disorganized cortical cytoarchitecture
- SATB2 and SATB2/TBR1 expression in fetal brain cortical plates at E14.5 and E18.5 ([2]; MIA (poly(I:C)) vs control): abnormal expression
- SATB2 expression at E14.5 ([2]; MIA (poly(I:C)) vs control): delayed expression of SATB2
- abnormal expression of SATB2, TBR1 and CTIP2 in adult offspring ([2]; MIA adult offspring (P60)): maintained

B1: recombinant IL-17a protein: Recombinant mouse IL-17a cytokine (R&D), injected into the fetal brain ventricle (protein, UniProt Q62386 26-158, looked up)
Interleukin-17A: AAIIPQSSACPNTEAKDFLQNVKVNLKVFNSLGAKVSSRRPSDYLNRSTSPWTLHRNEDPDRYPSVIWEAQCRHQRCVNAEGKLDHHMNSVLIQQEILVLKREPESCPFTFRVEKMLVGVGCTCVASIVRQAA
- pup USVs ([1]; injection into brains of fetuses from poly(I:C)-injected IL-6 KO mothers, vs PBS-injected controls): increased pup USVs
- USV phenotype ([1]; injection into the ventricles of IL-17Ra KO fetuses): nor enhanced USV phenotypes were observed
- USV phenotype ([1]; intra-ventricular injection at E14.5, compared with sham injection): enhanced USV phenotype
- cortical organization (SATB2, TBR1) at E18.5 ([2]; injected into the ventricles of the fetal brain at E14.5 in the absence of MIA): appearance of disorganized cortical patches
- thickness of the cortical plate at E18.5 ([2]; intra-ventricular injection at E14.5): thinned cortical plates at the medial but not lateral part of the brain

B2: recombinant IL-6: carrier-free recombinant mouse IL-6 (R&D) (protein, UniProt P08505 25-211, looked up)
Interleukin-6: FPTSQVRRGDFTEDTTPNRPVYTTSQVGGLITHVLWEIVEMRKELCNGNSDCMNNDDALAENNLKLPEIQRNDGCYQTGYNQEICLLKISSGLLEYHSYLEYMKNNLKDNKKDKARVLQRDTETLIHIFNQEVKDLHKIVLPTPISNALLTDKLESQKEWLRTKTIQFILKSLEEFLKVTLRSTRQT
- USV phenotype ([1]; injection into WT fetal brains at E14.5): nor enhanced USV phenotypes were observed
- USV phenotype in offspring [1, 3]: enhanced USV
- cortical phenotype in offspring [2, 3]: sufficient to produce MIA-associated behavioral (enhanced USV) and cortical phenotypes
